Earlier results as cited in paper PMC9805914.

Target: SARS-CoV-2 spike RGD motif RGD motif (Severe acute respiratory syndrome coronavirus 2) (UniProt P0DTC2)

integrin αvβ8 (from UniProt P06756)
Kd: 4 nM
